This note sets out measurements from PMC11281603.

The target of this test is polymeric Ig receptor (pIgR) fused to the FLAG tag (UniProt P01833). Briefly: flow cytometry on cells. (In flow cytometry, cells or beads pass a laser one at a time.)
Sequence of UniProt P01833 (P01833 19-764): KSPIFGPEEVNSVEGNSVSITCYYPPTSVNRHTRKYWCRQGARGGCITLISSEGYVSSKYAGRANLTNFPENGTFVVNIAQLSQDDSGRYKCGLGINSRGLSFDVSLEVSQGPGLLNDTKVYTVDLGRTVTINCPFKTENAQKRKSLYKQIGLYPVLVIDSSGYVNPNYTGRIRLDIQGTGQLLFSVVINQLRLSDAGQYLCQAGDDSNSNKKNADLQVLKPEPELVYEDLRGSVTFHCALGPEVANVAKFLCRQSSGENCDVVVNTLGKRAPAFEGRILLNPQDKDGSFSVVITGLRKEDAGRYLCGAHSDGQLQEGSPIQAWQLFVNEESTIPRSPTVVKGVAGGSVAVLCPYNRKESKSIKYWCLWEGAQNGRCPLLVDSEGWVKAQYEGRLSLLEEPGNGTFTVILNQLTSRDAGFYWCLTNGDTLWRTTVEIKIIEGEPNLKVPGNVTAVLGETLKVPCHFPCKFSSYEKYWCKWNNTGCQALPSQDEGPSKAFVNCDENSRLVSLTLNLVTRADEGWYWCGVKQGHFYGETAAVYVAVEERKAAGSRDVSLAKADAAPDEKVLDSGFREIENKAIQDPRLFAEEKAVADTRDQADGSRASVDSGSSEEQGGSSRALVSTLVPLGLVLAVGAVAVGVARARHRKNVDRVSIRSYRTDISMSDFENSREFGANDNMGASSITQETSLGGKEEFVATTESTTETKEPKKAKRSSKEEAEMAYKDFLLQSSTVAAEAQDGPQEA

On to “IgA from human colostrum (from UniProt P01591 23-159) (ligand)”, for which the mean percent binding to pIgR-expressing cells, ORF8-expressing cells worked out at 36.9%; the mean percent binding to pIgR-expressing cells, control cells worked out at 59.6%; the percent ORF8 binding left with 10 ug/mL IgA was 18%.

IgM from human serum (ligand) returned a mean percent binding to pIgR-expressing cells, ORF8-expressing cells of 25.1% and a mean percent binding to pIgR-expressing cells, control cells of 33.9%.
